For this assay, the target named is AMPylated HEPN^Lpg (Legionella pneumophila Philadelphia 1) (UniProt Q5ZRG2). Put plainly: crystal structure.

By stoichiometry N is commonly meant a count of units in the complex or per binding partner.

The substance “AMPylated HEPN^Lpg (from UniProt Q5ZRG2 1-139) (natural protein)” showed a stoichiometry N of 4.

Source of the values: PMC11586414.
